Results reported in patent publication US5866680.
Read-outs that look alike come from different tables or passages of the source.

How the values were obtained:
[1] = molecular target: A/B".1A pentamer mutant 1-142 L44V,V45A,S46L,R47K,S48T (Homo sapiens) (UniProt P09012); experiment: EMSA
[2] = molecular target: U1 snRNP-A 1-142 (Homo sapiens) (UniProt P09012); experiment: EMSA
[3] = molecular target: U2 snRNP-B" 1-109 (Homo sapiens) (UniProt P08579); experiment: EMSA
[4] = tested on: U2 snRNP-B" + U2 snRNP-A' (Homo sapiens); experiment: pulldown; conditions: A' stimulates B" binding to U2 about 100-fold
[5] = legend says full-length U2, text says U2 stem-loop IV

UniProt P08579, sequence (P08579 1-109): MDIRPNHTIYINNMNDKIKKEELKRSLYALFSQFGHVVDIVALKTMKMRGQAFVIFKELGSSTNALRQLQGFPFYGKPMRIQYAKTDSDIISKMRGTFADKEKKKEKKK

Substance	Kd [1] [nM]	Kd ([2]; earlier estimate 80 nM quoted, 10 mM MgCl2, 150 mM NaCl) [nM]	Kd [3] [nM]	binding signal [4] [fold]	Kd [1, 5] [nM]	Kd [2, 5] [nM]	Kd [3, 5] [nM]
U1SL2 (U1 stem-loop II)	70	30	800				
human U2 RNA				100	900	> 10000	400
